Laboratory results reported in US20220348894, “DNA MODIFYING ENZYMES AND ACTIVE FRAGMENTS AND VARIANTS THEREOF AND METHODS OF USE” (LifeEDIT Therapeutics, Inc., published 2022).

Columns and labels:
Settings in all cases: tags: SV40 NLS, 3xFLAG, nucleoplasmin NLS
[1] = biological target: LPG50168-nAPG07433.1 (synthetic); experiment: cell_activity; mutated reads, HEK293FT
Method: (§1) 500 ng of plasmid comprising an expression cassette comprising a coding sequence for a fusion protein shown in Table 10 and 500 ng of plasmid comprising an expression cassette encoding for an sgRNA shown in Table 11 were co-transfected into HEK293FT cells at 75-90% confluency in 24-well plates using Lipofectamine 2000 reagent (Life Technologies). Cells were then incubated at 37° C. for 72 h. Following incubation, genomic DNA was then extracted using NucleoSpin 96 Tissue (Macherey-Nagel) following the manufacturer's protocol. The genomic region flanking the targeted genomic site was PCR amplified using the primers in Table 11 and products were purified using ZR-96 DNA Clean and Concentrator (Zymo Research) following the manufacturer's protocol. The purified PCR products underwent Next Generation Sequencing on Illumina MiSeq. Typically, 100,000 of 250 bp paired-end reads (2×100,000 reads) are generated per amplicon. The reads were analyzed using CRISPResso (Pinello, et al. 2016 Nature Biotech, 34:695-697) to calculate the rates of editing. Output alignments were analyzed for INDEL formation or introduction of specific adenine mutations.
(§2) The editing rate for adenines within or proximal to the target sequence is indicated. “A5” indicates, for example, an adenine at position 5 of the target sequence. The position of each nucleotide in the target sequence was determined by numbering the first nucleotide in the target sequence closest to the PAM (which is 3′ of the target for APG07433.1) as position 1, and the position number increases in the 5′ direction away from the PAM sequence. The tables also show which nucleotide the adenine was changed to, and at what rate.

[2] = biological target: LPG50181-nAPG07433.1 (synthetic); experiment: cell_activity; mutated reads, HEK293FT
Method: as §1, §2

[3] = biological target: LPG50151-nAPG07433.1 (synthetic); experiment: cell_activity; mutated reads, HEK293FT
Method: as §1, §2

[4] = biological target: LPG50169-nAPG07433.1 (synthetic); experiment: cell_activity; mutated reads, HEK293FT
Method: as §1, §2

[5] = biological target: LPG50159-nAPG07433.1 (synthetic); experiment: cell_activity; mutated reads, HEK293FT
Method: as §1, §2

[6] = biological target: LPG50147-nAPG07433.1 (synthetic); experiment: cell_activity; mutated reads, HEK293FT
Method: as §1, §2

[7] = biological target: LPG50163-nAPG07433.1 (synthetic); experiment: cell_activity; mutated reads, HEK293FT
Method: as §1, §2

[8] = biological target: LPG50167-nAPG07433.1 (synthetic); experiment: cell_activity; mutated reads, HEK293FT
Method: as §1, §2

[9] = biological target: LPG50149-nAPG07433.1 (synthetic); experiment: cell_activity; mutated reads, HEK293FT
Method: as §1, §2

[10] = biological target: LPG50170-nAPG07433.1 (synthetic); experiment: cell_activity; mutated reads, HEK293FT
Method: as §1, §2

[11] = biological target: LPG50157-nAPG07433.1 (synthetic); experiment: cell_activity; mutated reads, HEK293FT
Method: as §1, §2

[12] = biological target: LPG50164-nAPG07433.1 (synthetic); experiment: cell_activity; mutated reads, HEK293FT
Method: as §1, §2

[13] = biological target: LPG50150-nAPG07433.1 (synthetic); experiment: cell_activity; mutated reads, HEK293FT
Method: as §1, §2

[14] = biological target: LPG50166-nAPG07433.1 (synthetic); experiment: cell_activity; mutated reads, HEK293FT
Method: as §1, §2

[15] = biological target: LPG50152-nAPG07433.1 (synthetic); experiment: cell_activity; mutated reads, HEK293FT
Method: as §1, §2

[16] = biological target: LPG50173-nAPG07433.1 (synthetic); experiment: cell_activity; mutated reads, HEK293FT
Method: as §1, §2

[17] = biological target: LPG50144-nAPG07433.1 (synthetic); experiment: cell_activity; mutated reads, HEK293FT
Method: as §1, §2

[18] = biological target: LPG50175-nAPG07433.1 (synthetic); experiment: cell_activity; mutated reads, HEK293FT
Method: as §1, §2

[19] = biological target: LPG50174-nAPG07433.1 (synthetic); experiment: cell_activity; mutated reads, HEK293FT
Method: as §1, §2

[20] = biological target: LPG50165-nAPG07433.1 (synthetic); experiment: cell_activity; mutated reads, HEK293FT
Method: as §1, §2

[21] = biological target: LPG50177-nAPG07433.1 (synthetic); experiment: cell_activity; mutated reads, HEK293FT
Method: as §1, §2

[22] = biological target: LPG50176-nAPG07433.1 (synthetic); experiment: cell_activity; mutated reads, HEK293FT
Method: as §1, §2

[23] = biological target: LPG50158-nAPG07433.1 (synthetic); experiment: cell_activity; mutated reads, HEK293FT
Method: as §1, §2

[24] = biological target: LPG50179-nAPG07433.1 (synthetic); experiment: cell_activity; mutated reads, HEK293FT
Method: as §1, §2

[25] = biological target: LPG50156-nAPG07433.1 (synthetic); experiment: cell_activity; mutated reads, HEK293FT
Method: as §1, §2

[26] = biological target: LPG50171-nAPG07433.1 (synthetic); experiment: cell_activity; mutated reads, HEK293FT
Method: as §1, §2

[27] = biological target: LPG50142-nAPG07433.1 (synthetic); experiment: cell_activity; mutated reads, HEK293FT
Method: as §1, §2

[28] = biological target: LPG50146-nAPG07433.1 (synthetic); experiment: cell_activity; mutated reads, HEK293FT
Method: as §1, §2

[29] = biological target: LPG50155-nAPG07433.1 (synthetic); experiment: cell_activity; mutated reads, HEK293FT
Method: as §1, §2

[30] = biological target: LPG50182-nAPG07433.1 (synthetic); experiment: cell_activity; mutated reads, HEK293FT
Method: as §1, §2

[31] = biological target: LPG50145-nAPG07433.1 (synthetic); experiment: cell_activity; mutated reads, HEK293FT
Method: as §1, §2

[32] = biological target: LPG50178-nAPG07433.1 (synthetic); experiment: cell_activity; mutated reads, HEK293FT
Method: as §1, §2

[33] = biological target: LPG50141-nAPG07433.1 (synthetic); experiment: cell_activity; mutated reads, HEK293FT
Method: as §1, §2

[34] = biological target: LPG50160-nAPG07433.1 (synthetic); experiment: cell_activity; mutated reads, HEK293FT
Method: as §1, §2

[35] = biological target: LPG50143-nAPG07433.1 (synthetic); experiment: cell_activity; mutated reads, HEK293FT
Method: as §1, §2

[36] = biological target: LPG50162-nAPG07433.1 (synthetic); experiment: cell_activity; mutated reads, HEK293FT
Method: as §1, §2

[37] = biological target: LPG50148-nAPG07433.1 (synthetic); experiment: cell_activity; mutated reads, HEK293FT; PAM 3' of target
Method: as §1, §2

[38] = biological target: LPG50140-nAPG07433.1 (synthetic); experiment: as above
Method: as §1, §2

Chain of LPG50148-nAPG07433.1 (synthetic) (chain, as listed by the source): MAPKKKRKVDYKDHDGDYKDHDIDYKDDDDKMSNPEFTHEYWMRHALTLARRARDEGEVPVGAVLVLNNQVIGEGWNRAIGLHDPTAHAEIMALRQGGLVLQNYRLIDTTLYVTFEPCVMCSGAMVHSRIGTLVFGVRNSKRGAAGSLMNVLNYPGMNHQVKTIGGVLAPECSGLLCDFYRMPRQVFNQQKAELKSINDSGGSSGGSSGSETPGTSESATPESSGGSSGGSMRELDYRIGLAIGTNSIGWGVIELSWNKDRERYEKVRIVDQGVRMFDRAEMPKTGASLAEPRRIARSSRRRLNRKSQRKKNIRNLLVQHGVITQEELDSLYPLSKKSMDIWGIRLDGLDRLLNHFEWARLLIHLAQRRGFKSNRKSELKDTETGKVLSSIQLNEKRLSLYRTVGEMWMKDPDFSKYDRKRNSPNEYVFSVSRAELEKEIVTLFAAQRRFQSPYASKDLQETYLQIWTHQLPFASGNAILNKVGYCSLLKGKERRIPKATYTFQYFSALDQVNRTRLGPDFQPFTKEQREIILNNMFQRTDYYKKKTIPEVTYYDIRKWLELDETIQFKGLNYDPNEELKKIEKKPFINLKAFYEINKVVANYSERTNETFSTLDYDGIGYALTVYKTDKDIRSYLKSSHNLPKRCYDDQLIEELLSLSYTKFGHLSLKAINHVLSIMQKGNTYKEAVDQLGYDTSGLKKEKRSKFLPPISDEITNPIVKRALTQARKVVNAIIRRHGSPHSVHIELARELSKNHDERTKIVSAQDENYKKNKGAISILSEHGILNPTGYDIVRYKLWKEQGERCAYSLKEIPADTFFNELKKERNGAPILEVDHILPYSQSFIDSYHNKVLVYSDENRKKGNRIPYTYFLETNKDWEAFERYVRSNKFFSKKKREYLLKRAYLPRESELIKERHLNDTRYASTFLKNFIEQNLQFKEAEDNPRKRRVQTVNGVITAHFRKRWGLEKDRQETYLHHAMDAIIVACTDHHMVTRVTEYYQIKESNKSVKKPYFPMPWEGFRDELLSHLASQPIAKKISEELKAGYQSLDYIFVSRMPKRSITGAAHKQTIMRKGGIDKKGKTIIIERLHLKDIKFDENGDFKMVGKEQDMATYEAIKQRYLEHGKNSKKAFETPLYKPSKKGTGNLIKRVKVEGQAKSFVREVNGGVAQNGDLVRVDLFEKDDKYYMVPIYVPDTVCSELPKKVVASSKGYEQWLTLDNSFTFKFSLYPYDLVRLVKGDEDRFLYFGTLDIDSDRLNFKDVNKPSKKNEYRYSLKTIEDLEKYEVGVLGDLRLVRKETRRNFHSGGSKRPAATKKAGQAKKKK
Chain of LPG50159-nAPG07433.1 (synthetic) (chain, as listed by the source): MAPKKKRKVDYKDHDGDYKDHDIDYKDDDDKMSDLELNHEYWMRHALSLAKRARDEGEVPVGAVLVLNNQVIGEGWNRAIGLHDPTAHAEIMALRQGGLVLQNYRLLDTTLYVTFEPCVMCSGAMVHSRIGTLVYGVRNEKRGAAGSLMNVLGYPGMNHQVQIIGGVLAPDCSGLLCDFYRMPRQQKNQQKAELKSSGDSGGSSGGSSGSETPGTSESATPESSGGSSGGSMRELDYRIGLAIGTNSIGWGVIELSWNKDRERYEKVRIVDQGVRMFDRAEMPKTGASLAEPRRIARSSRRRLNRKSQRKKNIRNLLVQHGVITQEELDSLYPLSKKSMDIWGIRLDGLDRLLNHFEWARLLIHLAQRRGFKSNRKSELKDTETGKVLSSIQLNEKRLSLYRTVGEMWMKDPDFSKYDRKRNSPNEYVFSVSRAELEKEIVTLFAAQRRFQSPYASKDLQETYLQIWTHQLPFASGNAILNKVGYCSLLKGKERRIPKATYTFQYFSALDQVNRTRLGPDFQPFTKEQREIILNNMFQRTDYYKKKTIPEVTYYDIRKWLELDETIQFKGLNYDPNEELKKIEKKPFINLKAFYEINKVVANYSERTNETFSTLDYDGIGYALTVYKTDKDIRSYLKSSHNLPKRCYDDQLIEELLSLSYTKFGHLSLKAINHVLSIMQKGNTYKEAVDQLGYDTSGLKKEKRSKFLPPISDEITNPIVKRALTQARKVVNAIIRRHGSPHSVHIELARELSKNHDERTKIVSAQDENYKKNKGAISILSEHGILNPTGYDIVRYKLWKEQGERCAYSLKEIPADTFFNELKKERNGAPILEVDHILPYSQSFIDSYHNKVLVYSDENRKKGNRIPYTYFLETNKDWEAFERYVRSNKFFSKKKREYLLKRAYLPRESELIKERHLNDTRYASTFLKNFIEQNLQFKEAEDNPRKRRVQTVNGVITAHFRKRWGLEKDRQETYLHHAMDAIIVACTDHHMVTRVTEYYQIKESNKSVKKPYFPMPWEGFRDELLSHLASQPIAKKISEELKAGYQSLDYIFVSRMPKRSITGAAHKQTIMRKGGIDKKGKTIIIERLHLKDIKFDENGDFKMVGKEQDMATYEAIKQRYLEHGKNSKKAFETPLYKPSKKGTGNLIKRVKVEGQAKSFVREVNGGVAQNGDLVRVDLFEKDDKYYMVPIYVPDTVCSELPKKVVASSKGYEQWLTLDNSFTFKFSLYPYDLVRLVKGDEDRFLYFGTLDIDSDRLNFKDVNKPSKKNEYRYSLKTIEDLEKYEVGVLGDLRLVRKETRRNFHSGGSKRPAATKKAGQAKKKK
Chain of LPG50155-nAPG07433.1 (synthetic) (chain, as listed by the source): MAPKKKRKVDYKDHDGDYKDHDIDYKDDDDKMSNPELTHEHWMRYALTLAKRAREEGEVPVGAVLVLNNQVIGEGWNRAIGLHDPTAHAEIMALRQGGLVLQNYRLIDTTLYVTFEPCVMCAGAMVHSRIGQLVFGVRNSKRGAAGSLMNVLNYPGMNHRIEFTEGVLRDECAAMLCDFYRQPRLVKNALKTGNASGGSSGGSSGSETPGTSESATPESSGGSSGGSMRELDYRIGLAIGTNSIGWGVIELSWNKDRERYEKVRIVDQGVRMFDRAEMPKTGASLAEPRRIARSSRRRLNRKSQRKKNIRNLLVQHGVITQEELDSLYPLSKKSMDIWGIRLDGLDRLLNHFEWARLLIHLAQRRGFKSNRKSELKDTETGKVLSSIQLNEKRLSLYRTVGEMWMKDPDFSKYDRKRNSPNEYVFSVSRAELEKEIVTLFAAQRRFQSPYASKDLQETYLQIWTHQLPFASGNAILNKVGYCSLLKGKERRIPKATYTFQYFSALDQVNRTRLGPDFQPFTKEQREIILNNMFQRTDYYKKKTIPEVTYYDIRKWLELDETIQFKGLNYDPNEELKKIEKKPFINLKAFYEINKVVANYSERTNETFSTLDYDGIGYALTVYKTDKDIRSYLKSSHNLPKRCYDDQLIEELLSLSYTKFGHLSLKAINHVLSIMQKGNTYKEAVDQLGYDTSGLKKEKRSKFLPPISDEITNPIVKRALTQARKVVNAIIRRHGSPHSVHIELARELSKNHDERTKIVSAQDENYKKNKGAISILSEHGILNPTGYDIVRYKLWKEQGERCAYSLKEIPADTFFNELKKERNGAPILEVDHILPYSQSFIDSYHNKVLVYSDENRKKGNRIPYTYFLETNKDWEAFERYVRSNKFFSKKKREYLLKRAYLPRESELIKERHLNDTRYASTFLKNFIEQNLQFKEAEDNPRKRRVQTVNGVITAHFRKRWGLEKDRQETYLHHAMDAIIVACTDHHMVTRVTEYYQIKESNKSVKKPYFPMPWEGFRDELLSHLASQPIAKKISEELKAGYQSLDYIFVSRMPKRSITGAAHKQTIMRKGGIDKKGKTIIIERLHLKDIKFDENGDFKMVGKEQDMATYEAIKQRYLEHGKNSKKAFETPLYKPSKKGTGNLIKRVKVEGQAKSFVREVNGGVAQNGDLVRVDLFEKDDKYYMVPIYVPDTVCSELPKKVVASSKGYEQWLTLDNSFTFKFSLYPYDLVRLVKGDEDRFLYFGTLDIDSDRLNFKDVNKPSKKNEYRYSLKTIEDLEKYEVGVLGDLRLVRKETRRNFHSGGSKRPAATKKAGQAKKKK

B1: SGN000186 sgRNA (Table 11) ; SGN000186 target (Table 11) (ssRNA ; dsDNA)
RNA: GGACAGUGCGCAUCUCCCUGGUCAUAGUUCCAUUAAAGCCAAAAGUGGCUUUGAUGUUUCUAUGAUAAGGGUUUCGACCCGUGGCGUCGGGGAUCGCCUGCCCAUUGAAAUGGGCUUCUCCCCAUUUAUU
DNA 1: GGACAGTGCGCATCTCCCTG
DNA 2: CAGGGAGATGCGCACTGTCC
- activity [1]: 7%
- activity [2]: 12.6%
- activity [3]: 7.76%
- activity [4]: 13%
- activity [5]: 6.99%
- activity [6]: 12.6%
- activity [7]: 10%
- activity [8]: 8%
- activity [9]: 22.1%
- activity [10]: 12.2%
- activity [11]: 12.2%
- activity [12]: 7.38%
- activity [13]: 23.7%
- activity [14]: 8%
- activity [15]: 18%
- activity [16]: 7.88%
- activity [17]: 12.2%
- activity [18]: 14%
- activity [19]: 8%
- activity [20]: 9.88%
- activity [21]: 11%
- activity [22]: 7%
- activity [23]: 4.91%
- activity [24]: 12.5%
- activity [25]: 12.7%
- activity [26]: 12.7%
- activity [27]: 14.1%
- activity [28]: 17.8%
- activity [29]: 17%
- activity [30]: 9%
- activity [31]: 9.93%
- activity [32]: 12.9%
- activity [33]: 9.79%
- activity [34]: 16%
- activity [35]: 10.6%
- activity [36]: 14%
- activity [37]: 32.6%
- activity [38]: 18.8%
